The data set addresses WRN helicase core (531-950), lacking the WH domain (Homo sapiens, UniProt Q14191 531-950). Description: HDX-MS; protein:ssDNA 1:2.5, no nucleotide analogue added; protection of D2 hairpin/motif IV peptide only after 4 h labelling; HDX-MS: WRN stock 16.66 uM in 15 mM Hepes, 150 mM NaCl, pH 7.3; 2 min equilibration with ligand, then 16-fold dilution into deuterated buffer, room temperature, 10 s to 4 h. The settings on record: protein: recombinant; tags: N-terminal His-Zbasic tag, TEV-cleaved; single strand.

WRN helicase core (531-950), lacking the WH domain, sequence (Q14191 531-950): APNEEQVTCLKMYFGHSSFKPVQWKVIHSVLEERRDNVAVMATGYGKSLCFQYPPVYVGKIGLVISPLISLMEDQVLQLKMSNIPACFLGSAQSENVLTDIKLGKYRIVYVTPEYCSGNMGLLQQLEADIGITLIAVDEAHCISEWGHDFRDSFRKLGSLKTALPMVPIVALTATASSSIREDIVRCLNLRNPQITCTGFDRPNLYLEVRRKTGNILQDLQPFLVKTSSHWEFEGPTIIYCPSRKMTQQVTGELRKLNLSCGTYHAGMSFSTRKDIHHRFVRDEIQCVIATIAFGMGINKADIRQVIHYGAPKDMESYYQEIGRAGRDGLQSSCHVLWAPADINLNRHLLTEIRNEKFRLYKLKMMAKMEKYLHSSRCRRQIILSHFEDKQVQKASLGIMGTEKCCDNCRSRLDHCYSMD

As for CCAGGTCGATAGGTTCGAATTGGTT (ssDNA) [25-nt ssDNA], the binding result is “binds”.
